T1: GST-NF1^PPQY (residues 2665-2687) (UniProt P21359-2 2665-2687)
T1 construct: Neurofibromin 1 (NF1), residues 2665-2687, holds the PPQY motif; also called GST-tagged NF1^PPQY; source: purified; not shown: GST, N-terminal, kept
T1 chain (looked up): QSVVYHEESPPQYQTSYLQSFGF


Key:
Conditions in all cases: both partners purified
[1] = target: T1, GST-NF1^PPQY (residues 2665-2687); experiment: pull-down; GST, GST-NF1^PPQY or GST-NF1^AAAA prebound on Glutathione Sepharose beads; increasing amounts of His-Sumo-YAP1^WW1 or His-Sumo-YAP1^WW2 added; 20 mM Tris pH 8.0, 150 mM NaCl, 2 h, 4 °C; eluted with 10 mM GSH; SDS-PAGE, Coomassie blue
[2] = target: T2, YAP1^WW2 (as used in ITC) (UniProt P46937 227-266); experiment: ITC; 25 °C, PEAQ-ITC; 10 mM NF1^PPQY peptide injected (20 injections of 2 μl) into 1 mM YAP1^WW1 or YAP1^WW2; 10 mM Tris pH 8.0, 100 mM NaCl; one-site binding model
T2 construct: Yes-associated protein 1 (YAP1), second WW domain; the label YAP1^WW2 is defined as residues 227-266 in the pull-down methods; The ITC methods name only YAP1^WW2

[3] = target: T3, YAP1^WW1 (as used in ITC) (UniProt P46937 174-204); experiment: as above
T3 construct: Yes-associated protein 1 (YAP1), first WW domain; the label YAP1^WW1 is defined as residues 174-204 in the pull-down methods; The ITC methods name only YAP1^WW1

Binder	binding result [1]	Kd [2] [µM]	Kd [3] [µM]
PAGWEMAKTSSGQRYFLNHIDQTTTWQDPRK (domain or fragment, UniProt P46937 174-204, looked up, Yes-associated protein 1 (YAP1), first WW domain, residues 174-204; source: purified; not shown: His, N-terminal, kept; Sumo, N-terminal, kept) [His-Sumo-YAP1^WW1 (residues 174-204)]	binds	–	–
SASGPLPDGWEQAMTQDGEIYYINHKNKTTSWLDPRLDPR (domain or fragment, UniProt P46937 227-266, looked up, Yes-associated protein 1 (YAP1), second WW domain, residues 227-266; source: purified; not shown: His, N-terminal, kept; Sumo, N-terminal, kept) [His-Sumo-YAP1^WW2 (residues 227-266)]	binds	–	–
EESPPQYQTS (also called NF1 peptides; source: synthetic peptide (Scilight-Peptide, China)) [NF1^PPQY peptide (residues 2671-2680: EESPPQYQTS)]	–	346	320
